Reference: patent publication US6852686B2, “Methods for ameliorating icthyosiform skin diseases” (The United States of America as represented by the …, priority 1999, dated 2005)
Where two headings read alike, the source gives them in different places.

What was measured:
TGase 1 [1] = molecular target: T1, TGase 1 (Homo sapiens, UniProt P22735); assay: 14C-putrescine labeling of involucrin Gln residues by TGase 1; format: biochemical
T1 construct: Recombinant full-length human TGase 1 and TGase 3 enzymes were expressed in Sf9 cells by the BaculoGold system; made in house; host or cells: Sf9 insect cells, BaculoGold baculovirus system, pVL1392 vector
T1 sequence (P22735 1-817): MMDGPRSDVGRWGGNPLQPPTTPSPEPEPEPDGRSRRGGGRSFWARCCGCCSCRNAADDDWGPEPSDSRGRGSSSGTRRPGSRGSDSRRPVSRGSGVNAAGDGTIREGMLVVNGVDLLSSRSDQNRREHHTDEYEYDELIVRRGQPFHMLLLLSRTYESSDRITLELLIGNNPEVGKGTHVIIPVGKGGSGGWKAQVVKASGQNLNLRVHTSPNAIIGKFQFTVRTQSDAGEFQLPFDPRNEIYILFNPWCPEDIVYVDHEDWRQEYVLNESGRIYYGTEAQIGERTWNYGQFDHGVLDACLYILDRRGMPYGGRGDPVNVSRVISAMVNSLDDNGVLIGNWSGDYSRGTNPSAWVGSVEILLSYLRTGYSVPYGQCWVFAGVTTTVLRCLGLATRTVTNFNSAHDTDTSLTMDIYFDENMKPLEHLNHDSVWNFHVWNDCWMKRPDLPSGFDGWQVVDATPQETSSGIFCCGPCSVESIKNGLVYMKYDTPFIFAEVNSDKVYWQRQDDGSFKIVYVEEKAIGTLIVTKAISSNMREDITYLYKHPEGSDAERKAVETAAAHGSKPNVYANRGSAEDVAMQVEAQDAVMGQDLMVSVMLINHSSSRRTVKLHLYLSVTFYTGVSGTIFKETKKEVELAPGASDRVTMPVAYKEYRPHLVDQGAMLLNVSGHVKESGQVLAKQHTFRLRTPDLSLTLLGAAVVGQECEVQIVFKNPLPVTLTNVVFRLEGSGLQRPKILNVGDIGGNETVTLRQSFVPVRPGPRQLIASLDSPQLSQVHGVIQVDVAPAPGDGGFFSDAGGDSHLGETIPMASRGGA
Protocol: This was set far below saturating amounts on SLV in order to ensure that all enzyme was bound to the SLV.
After 4 h incubation at 37° C., the reactions were stopped by addition of EDTA to 10 mM and 100 μl 20% SDS, and vortexed. This mixture was precipitated and washed three times with acetone-triethylamine-acetic acid (90:5:5) (Konigsberg, W. H. and L. Henderson, Meth. Enzymol., 91: […] (1983), herein expressly incorporated by reference in its entirety) to remove the SDS and the lipids. After repeated washings with acetone, the pellet was redissolved in a buffer of 50 mM Tris-Cl (pH 7.5), and digested for 16 h at 37° C. with 2% (by weight) of modified trypsin (Boehringer Mannheim, Indianapolis, Ind.). Aliquots of 20 μg were resolved on a 250×4.6 mm Beckman Ultrasphere C18 HPLC column. Separated peaks were analyzed for radioactivity and peaks containing activity were attached to a solid support for sequencing as before (Steinert, P. M. and L. N. Marekov, J. Biol. Chem., 270: 17702-17711 (1995), herein expressly incorporated by reference in its entirety). As the peptide number 40 eluted by 50% acetonitrile (see FIG. 9) was too long for direct sequencing, it was subjected to limited proteolysis by dispase and was sequenced from four peptides isolated by HPLC chromatography as above. […]

TGase 1 [2] = molecular target: T1, TGase 1; assay: Kinetic parameters of 14C-putrescine incorporation by TGase 1; format: biochemical; settings: for Km: KM pertains to the protein substrate, read-out: KM(app); for Vmax / kcat(putrescine): putrescine incorporation, 37° C.
Description: One possibility is that this KM increase is due to the reduced diffusional mobility of the enzyme after attachment to the SLV. […] (Table 1). One reason for this is that a reduced access to many of the Gln residues occurs after anchorage of the enzyme. On the other hand, the Vmax value for the recombinant SPR2 substrate was almost unchanged.
The reaction rates were quantified by measuring the incorporated radioactivity as before (Thomas, M. V., Cellular Calcium, McCormack, et al., eds., pp. 115-123 (1991), herein expressly incorporated by reference in its entirety). Kinetic constants were obtained using the curve-fitting and regression analysis Sigmaplot 4.0 software. All data points represent the means of three measurements, each performed in triplicate.

[3] = tested on: synthetic lipid vesicles (SLV); assay: Membrane association (binding) to synthetic lipid vesicles, SLV pelleted by ultracentrifugation
Protocol: Mixtures of dipalmitoyl-phosphatidylcholine, cholesterol, dipalmitoyl-phosphatidylserine (PS) and other lipids where indicated (all from Sigma, St. Louis, Mo.) were made in chloroform-methanol (95:5). In all cases, the mixtures contained 30% cholesterol. When the amounts of PS or other individual components were varied, phosphatidylcholine was added to make the mixture to 100%. Mixtures were made in 0.5 ml and contained 10 μmol of total lipids. The solvent was flushed away under a stream of N2, dried further under high vacuum for 4 h and then resuspended by vortexing in 0.5 ml of a buffer containing 50 mM Tris-Cl (pH 8.0), 100 mM NaCl, 3 mM NaN3, 5 mM DTT, and 200 mM sucrose. The mixture was sonicated on ice five times each for 1 min using a Branson 250 sonifier with micro probe tip, and allowed to stand at 23° C. to facilitate assembly of SLV. After 1 h the SLV were diluted with 0.5 ml of the above buffer without sucrose, and 200 μl aliquots were centrifuged at 100,000× g for 30 min in a Beckman Airfuge using the A-10 rotor. The top 175 μl was removed, and the pellet resuspended in another 150 μl of sucrose-free buffer. The final stock concentration was 11 μmol/ml.
In all cases, the buffer contained 50 mM Tris-HCl (pH 8.0), 100 mM NaCl, 1 mM DTT, 3 mM NaN3, and other additives where noted. Some mixtures also contained 1 mM CaCl2 or 2 mM EDTA. After mixing, the samples were centrifuged for 45 min at 100,000× g, and the protein content from 50 μl of supernatant was determined by amino acid analysis after acid hydrolysis. Data were usually not corrected for loss of SLV lipids, as in control experiments, cumulated losses were <4% as assayed by ^14C-phosphatidylcholine tracer, and thus neglected from the calculations.
(§1) The Ca^++ concentrations in the μM range were set by buffering free Ca^++ with chelators The desired Ca^++/chelator ratios were calculated by the WinMaxC 1.7 computer program (Bers, et al., Methods in Cell Biology Vol 40: A Practical Guide to the Study of Ca^2+ in Living Cells, Nuccitelli, R., ed., pp. 1-327 (1994), herein expressly incorporated by reference in its entirety), and were made by adding the required amounts of 1 M CaCl2 to 0.2 M stock solutions of the following chelators at pH 8.0. Final chelator concentrations in the samples were 10 mM in all cases. Sodium citrate was the chelator for the 20-500 μM Ca^++ range; sodium nitrilotriacetate for the 1-20 μM Ca^++ range; and sodium 1,2-bis(aminophenoxy)ethane-N,N,N′,N′ tetraacetate for the 0.1-1 μM Ca^++ range.

TGase 1 [4] = molecular target: T1, TGase 1; assay: Free Ca++ dependence of 14C-putrescine incorporation by TGase 1; format: biochemical
Protocol: Activity values are given as percent of the values measured at 1 mM Ca^++. […] Points represent the means±s.d. of three independent measurements.
The optimal Ca^++ ion concentration required for the TGase 1 reaction has not been measured for any substrate. Standard in vitro solution assays contain 1-5 mM Ca^++. (Folk, J. E. and J. S. Finlayson, Adv. Protein Chem., 31: 1-133 (1977); Folk, J. E., Adv. Enzymol. Related Areas Mol. Biol., 54: 1-56 (1983); and Lorand, L. S. M. Conrad, Mol. Cell Biochem., 58: 9-35 (1984)). […] (FIG. 6, open symbols). […] (FIG. 2).
as §1

[5] = SLV containing 15% PS compared to solubilized TGase 1 and soluble involucrin

B1: Involucrin: recombinant purified human involucrin expressed in E. coli (protein)
chain: MSQQHTLPVTLSPALSQELLKTVPPPVNTHQEQMKQPTPLPPPCQKVPVELPVEVPSKQEEKHMTAVKGLPEQECEQQQKEPQEQELQQQHWEQHEEYQKAENPEQQLKQEKTQRDQQLNKQLEEEKKLLDQQLDQELVKRDEQLGMKKEQLLELPEQQEGHLKHLEQQEGQLKHPEQQEGQLELPEQQEGQLELPEQQEGQLELPEQQEGQLELPEQQEGQLELPEQQEGQLELPQQQEGQLELSEQQEGQLELSEQQEGQLKHLEHQEGQLEVPEEQMGQLKYLEQQEGQLKHLDQQEKQPELPEQQMGQLKHLEQQEGQPKHLEQQEGQLEQLEEQEGQLKHLEQQEGQLEHLEHQEGQLGLPEQQVLQLKQLEKQQGQPKHLEEEEGQLKHLVQQEGQLKHLVQQEGQLEQQERQVEHLEQQVGQLKHLEEQEGQLKHLEQQQGQLEVPEQQVGQPKNLEQEEKQLELPEQQEGQVKHLEKQEAQLELPEQQVGQPKHLEQQEKHLEHPEQQDGQLKHLEQQEGQLKDLEQQKGQLEQPVFAPAPGQVQDIQPALPTKGEVLLPVEHQQQKQEVQWPPKHK
- putrescine incorporated (TGase 1 [1]; membrane-bound TGase 1 (Sf9 particulate membranes or SLV with 15% PS)): approximately 1 mol of putrescine/mol of invol
- putrescine incorporated (TGase 1 [1]; solubilized recombinant TGase 1, no membranes or SLV, 20 mM putrescine, 4 h, 37° C.): about 20 mol of putrescine incorporated/mol of involucrin
- decrease of KM (TGase 1 [2]; [5]): approximately 40 fold
- decrease of kcat value (TGase 1 [2]; [5]): 200 fold
- kinetic parameters as a substrate (TGase 1 [2]; SLV formulated in the absence of PS): immeasurably low
- Km (TGase 1 [2]; SLV-bound TGase 1 (15% PS)): 2.9 ± 0.4 µM
- Vmax (TGase 1 [2]; SLV-bound TGase 1 (15% PS)): 2.4 ± 0.4 pmol/min
- kcat(putrescine) (TGase 1 [2]; SLV-bound TGase 1 (15% PS)): 2.55 min⁻¹
- Vmax (TGase 1 [2]; Solubilized TGase 1, 0.94 pmol): 482 ± 37 pmol/min
- kcat(putrescine) (TGase 1 [2]; Solubilized TGase 1, 0.94 pmol): 513 min⁻¹
- Km (TGase 1 [2]; Solubilized TGase 1): 114 ± 19 µM
- Ca++ concentration above which binding to SLV occurs ([3]; SLV containing 12-18% phosphatidylserine): above 1 μM
- amount saturating SLV ([3]; SLVs containing 15-30% PS): 0.43±0.02 nmol involucrin/μmol lipid
- free Ca++ concentration at which binding to SLVs was first detected ([3]; SLVs containing 15 mol % PS): 1 :M
- free Ca++ concentration for maximal binding to SLVs ([3]; SLVs containing 15 mol % PS, saturating involucrin): > 20 µM

B2: TGase 1: recombinant full-length human transglutaminase 1 expressed in Sf9 cells by baculovirus, solubilized or bound to SLV (protein)
chain: MMDGPRSDVGRWGGNPLQPPTTPSPEPEPEPDGRSRRGGGRSFWARCCGCCSCRNAADDDWGPEPSDSRGRGSSSGTRRPGSRGSDSRRPVSRGSGVNAAGDGTIREGMLVVNGVDLLSSRSDQNRREHHTDEYEYDELIVRRGQPFHMLLLLSRTYESSDRITLELLIGNNPEVGKGTHVIIPVGKGGSGGWKAQVVKASGQNLNLRVHTSPNAIIGKFQFTVRTQSDAGEFQLPFDPRNEIYILFNPWCPEDIVYVDHEDWRQEYVLNESGRIYYGTEAQIGERTWNYGQFDHGVLDACLYILDRRGMPYGGRGDPVNVSRVISAMVNSLDDNGVLIGNWSGDYSRGTNPSAWVGSVEILLSYLRTGYSVPYGQCWVFAGVTTTVLRCLGLATRTVTNFNSAHDTDTSLTMDIYFDENMKPLEHLNHDSVWNFHVWNDCWMKRPDLPSGFDGWQVVDATPQETSSGIFCCGPCSVESIKNGLVYMKYDTPFIFAEVNSDKVYWQRQDDGSFKIVYVEEKAIGTLIVTKAISSNMREDITYLYKHPEGSDAERKAVETAAAHGSKPNVYANRGSAEDVAMQVEAQDAVMGQDLMVSVMLINHSSSRRTVKLHLYLSVTFYTGVSGTIFKETKKEVELAPGASDRVTMPVAYKEYRPHLVDQGAMLLNVSGHVKESGQVLAKQHTFRLRTPDLSLTLLGAAVVGQECEVQIVFKNPLPVTLTNVVFRLEGSGLQRPKILNVGDIGGNETVTLRQSFVPVRPGPRQLIASLDSPQLSQVHGVIQVDVAPAPGDGGFFSDAGGDSHLGETIPMASRGGA
- Ca++ concentration above which enzyme becomes active in cross-linking (TGase 1 [4]; TGase 1 bound to SLV): above 10 μM
- lowering of Ca++ concentration required for cross-linking of involucrin versus soluble enzyme and substrate (TGase 1 [4]; membrane-bound versus soluble TGase 1): 10 fold
- Ca++ concentration above which enzyme becomes active in cross-linking (TGase 1 [4]; solution assays): above 100 μM
- saturating amount on SLV ([3]; SLV composed of 15% PS): approximately 0.9 nmol of TGase 1/μmol of lipid
- binding to SLVs ([3]; TGase 1 purified by the NH2OH—HCl method (S-acyl adducts hydrolysed)): unable to bind to SLVs
- binding to SLVs ([3]; TGase 1 purified from Triton X-100 extracts (lipid adducts retained)): spontaneously associates with SLVs
